In patent publication US20210388081A1 (Memorial Sloan Kettering, published 2021):

T1: FcRL3, overexpressed on 3T3 cells (UniProt Q96P31 18-734, limits assumed)
T1 construct: whole, on cells
T1 sequence (looked up): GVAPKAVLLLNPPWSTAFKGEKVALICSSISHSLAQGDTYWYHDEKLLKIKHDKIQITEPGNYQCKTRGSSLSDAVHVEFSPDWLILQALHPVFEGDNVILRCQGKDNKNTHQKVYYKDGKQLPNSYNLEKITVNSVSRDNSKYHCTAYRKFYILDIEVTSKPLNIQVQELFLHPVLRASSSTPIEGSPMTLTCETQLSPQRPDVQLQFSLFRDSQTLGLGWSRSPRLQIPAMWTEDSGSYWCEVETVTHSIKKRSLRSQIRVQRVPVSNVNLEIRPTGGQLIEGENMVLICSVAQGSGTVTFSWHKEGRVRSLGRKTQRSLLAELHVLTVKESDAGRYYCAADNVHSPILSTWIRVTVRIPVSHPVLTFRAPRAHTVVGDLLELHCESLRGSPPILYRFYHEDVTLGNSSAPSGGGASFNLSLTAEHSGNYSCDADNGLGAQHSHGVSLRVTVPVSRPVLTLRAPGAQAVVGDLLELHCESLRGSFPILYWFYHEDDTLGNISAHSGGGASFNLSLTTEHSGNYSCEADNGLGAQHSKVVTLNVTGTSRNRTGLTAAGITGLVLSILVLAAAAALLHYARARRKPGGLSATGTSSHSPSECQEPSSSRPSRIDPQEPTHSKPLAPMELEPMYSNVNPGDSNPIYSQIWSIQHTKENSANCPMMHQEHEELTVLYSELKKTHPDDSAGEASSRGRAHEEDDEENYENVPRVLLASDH

T2: Fc Receptor-like 5 (FcRL5), full length, overexpressed on 3T3 or Raji cells (human, UniProt Q96RD9 16-977)
T2 construct: also called 3T3-FcRL5
T2 sequence: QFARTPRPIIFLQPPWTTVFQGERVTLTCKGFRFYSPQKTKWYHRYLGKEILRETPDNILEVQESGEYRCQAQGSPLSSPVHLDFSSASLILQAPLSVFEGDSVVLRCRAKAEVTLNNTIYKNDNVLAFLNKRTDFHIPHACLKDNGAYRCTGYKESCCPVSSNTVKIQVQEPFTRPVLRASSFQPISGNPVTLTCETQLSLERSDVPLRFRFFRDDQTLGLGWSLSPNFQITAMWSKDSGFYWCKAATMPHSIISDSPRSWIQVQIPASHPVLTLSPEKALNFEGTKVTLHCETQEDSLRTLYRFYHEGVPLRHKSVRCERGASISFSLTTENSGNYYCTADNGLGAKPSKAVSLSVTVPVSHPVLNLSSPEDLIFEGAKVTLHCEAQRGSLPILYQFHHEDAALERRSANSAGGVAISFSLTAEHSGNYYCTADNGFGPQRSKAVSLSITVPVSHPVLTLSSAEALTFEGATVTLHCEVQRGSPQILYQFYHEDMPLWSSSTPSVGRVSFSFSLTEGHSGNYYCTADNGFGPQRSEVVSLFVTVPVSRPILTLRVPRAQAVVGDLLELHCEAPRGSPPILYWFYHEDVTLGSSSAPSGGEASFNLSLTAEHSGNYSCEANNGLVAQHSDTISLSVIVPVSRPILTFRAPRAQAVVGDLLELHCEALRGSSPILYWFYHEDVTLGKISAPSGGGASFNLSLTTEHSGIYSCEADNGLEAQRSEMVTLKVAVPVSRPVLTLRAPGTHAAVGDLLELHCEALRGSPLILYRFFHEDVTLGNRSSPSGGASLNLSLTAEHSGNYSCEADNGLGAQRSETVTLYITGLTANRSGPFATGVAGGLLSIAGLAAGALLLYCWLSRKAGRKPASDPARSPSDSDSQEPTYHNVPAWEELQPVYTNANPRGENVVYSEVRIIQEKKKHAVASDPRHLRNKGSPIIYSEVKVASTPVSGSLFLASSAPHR

T3: FcRL4, overexpressed on 3T3 cells (UniProt Q96PJ5 20-515, limits assumed)
T3 construct: whole, on cells
T3 sequence (looked up): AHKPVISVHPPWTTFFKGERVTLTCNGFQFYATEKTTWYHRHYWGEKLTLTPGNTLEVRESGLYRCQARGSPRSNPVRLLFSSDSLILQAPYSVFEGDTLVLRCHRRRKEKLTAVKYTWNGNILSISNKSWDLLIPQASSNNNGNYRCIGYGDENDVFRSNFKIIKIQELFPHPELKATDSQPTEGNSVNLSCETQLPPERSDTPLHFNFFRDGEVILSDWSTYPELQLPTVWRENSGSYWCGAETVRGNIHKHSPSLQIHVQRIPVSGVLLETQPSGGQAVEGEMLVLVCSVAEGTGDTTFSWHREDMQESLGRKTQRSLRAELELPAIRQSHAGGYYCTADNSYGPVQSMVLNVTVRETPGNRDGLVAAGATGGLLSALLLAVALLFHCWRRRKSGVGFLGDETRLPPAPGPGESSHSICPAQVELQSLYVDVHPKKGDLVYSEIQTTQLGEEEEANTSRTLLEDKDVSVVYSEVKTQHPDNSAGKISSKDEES

T4: FcRL2, overexpressed on 3T3 cells (UniProt Q96LA5 20-508, limits assumed)
T4 construct: whole, on cells
T4 sequence (looked up): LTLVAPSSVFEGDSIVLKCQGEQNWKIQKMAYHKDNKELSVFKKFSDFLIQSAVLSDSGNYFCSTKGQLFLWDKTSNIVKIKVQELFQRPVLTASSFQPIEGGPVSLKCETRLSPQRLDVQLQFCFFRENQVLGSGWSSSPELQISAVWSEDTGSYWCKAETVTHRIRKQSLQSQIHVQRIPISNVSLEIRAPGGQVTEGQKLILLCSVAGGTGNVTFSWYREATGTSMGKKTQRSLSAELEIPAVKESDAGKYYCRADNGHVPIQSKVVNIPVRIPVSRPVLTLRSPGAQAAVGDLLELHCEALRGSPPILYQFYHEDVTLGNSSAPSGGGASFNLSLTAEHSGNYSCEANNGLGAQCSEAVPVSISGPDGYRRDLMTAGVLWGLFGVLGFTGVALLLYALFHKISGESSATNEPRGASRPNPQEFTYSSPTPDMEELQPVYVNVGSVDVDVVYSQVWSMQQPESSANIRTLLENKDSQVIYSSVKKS

B1: ET200-121 (scFv)
scFv: QSVLTQPPSVSGAPGQRVTVSCTGSRSNIGAGYDVHWYQQLPGTAPKLLIYGNSNRPPGVPDRFSGSKSGTSASLVITGLQAEDAADYYCQSYDNTVRESPYVFGTGTKVTVLGSRGGGGSGGGGSGGGGSLEMAEVQLVQSGAEVKKPGASVKVSCKVSGYTLTELSMHWVRQAPGKGLEWMGGFDPEDGETIYAQKFQGRVTMTEDTSTDTAYMELSSLRSEDTAVYYCATESNLVSRHYYYYGMDVWGQGTTVTVSSTSGQAGQHHHHHHGAYPYDVPDYAS
notes: screened as phage clone; entry is VL-linker-VH-His tag-HA tag
B2: ET200-124 (scFv)
scFv: SYVLTQPPSVSVAPGKTARISCGGNDIGSKSVFWYQQRPGQAPVLVVYDDSDRPSGLPERFSGFNSGNTATLTISRVEAGDEADYYCQVWDSSSDHYVFGTGTKVTVLGSRGGGGSGGGGSGGGGSLEMAQVQLVESGGGLVQPGRSLRLSCAASGFTFDDYAMHWVRQAPGKGLEWVSGISWNSGSIGYADSVKGRFTISRDNAKNSLYLQMNSLRAEDTALYYCAKDITYGSGSYGAFDIWGQGTMVTVSSTSGQAGQHHHHHHGAYPYDVPDYAS
notes: as for B1
B3: ET200-125 (scFv)
scFv: NFMLTQPHAVSESPGKTVTISCTRSSGSIASNYVQWYQQRPGSSPRTVIYEDNQRPSGVPGRFSGSIDSSSNSASLTISGLKTEDEADYYCQSYDSTSVLFGGGTKLTVLGSRGGGGSGGGGSGGGGSLEMAEVQLVQSGAEVKKPGSSVKVSCKASGGTFSSNSLSWVRQAPGQGLEWMGRIFPILGITNYAQKFQGRVTITADKSTSTAYMELSSLRSEDTAVYYCARGNYQWYDAFDIWGQGTMVTVSSTSGQAGQHHHHHHGAYPYDVPDYAS
notes: as for B1
B4: ET200-005 (scFv)
scFv: QPVLTQPPSVSVVPGKTARITCGGKNIGSKSVHWYQQKPGQAPVVVIHYDSDRPSGIPERFSGSNSGNTATLTISRVEAGDEADYYCQVWDSSSDHPYVFGTGTKVTVLGSRGGGGSGGGGSGGGGSLEMAQVQLVQSGAEVKKPGASVKVSCKASGYTFTNYGISWVRQAPGQGLEWMGWISAYNGNTNYAHKLQGRVTMTTDTSTSTANMELRSLRPDDTAVYYCARSYFGSHDYWGQGTLVTVSSTSGQAGQHHHHHHGAYPYDVPDYAS
notes: as for B1
B5: ET200-009 (scFv)
scFv: QSVLTQPPSASGTPGQTVTISCSGSNSNIGSNYVYWYQQLPGTAPKLLIYRNNQRPSGVPDRFSGSKSGTSASLAISGLRSEDEADYYCAAWDDSLSAYVFGTGTKVTVLGSRGGGGSGGGGSGGGGSLEMAQVQLVQSGAEVKKPGASVKVSCKASGYTFTSYGISWVRQAPGQGLEWMGWISAYNGNTNYAQKLQGRVTMTTDTSTSTAYMELRSLRSDDTAVYYCARSSGNMVSWKDMWGQGTLVTVSSTSGQAGQHHHHHHGAYPYDVPDYAS
notes: as for B1
B6: ET200-123 (scFv)
scFv: QAVLTQPPSASGTPGQRVTISCSGSSSNIGSNTVNWYQQLPGTAPKLLMYNNDQRPSGVPDRFSGSKSGTSASLAISGLQSEDEADYYCAAWDDSLNGYVFGPGTKVTVLGSRGGGGSGGGGSGGGGSLEMAQVQLVESGAEVKKPGASVKVSCKASGYTFTSYGISWVRQAPGQGLEWMGWISAYNGNTNYAQKLQGRVTMTTDTSTSTAYMELRSLRSDDTAVYYCARDLSRGANPHYYYYYGMDVWGQGTTVTVSSTSGQAGQHHHHHHGAYPYDVPDYAS
notes: as for B1
B7: ET200-010 (scFv)
scFv: QSALTQPASVSGSPGQSITISCTGTSSDVGGYNSVSWYQQHPGKAPRLMIYDVSNRPSGVSNRFSGSKSGNTASLTISGLQAEDEADYYCSSYTSSSTPLVFGTGTKVTVLGSRGGGGSGGGGSGGGGSLEMAQVQLVQSGAEVKKPGASVKVSCKASGYTFTSYGISWVRQAPGQGLEWMGWISAYNGNTNYAQKLQGRVTMTTDTSTSTAYMELRSLRSDDTAVYYCARGAVAYHDWGQGTLVTVSSTSGQAGQHHHHHHGAYPYDVPDYAS
notes: as for B1

target: T1, FcRL3, overexpressed on 3T3 cells; test: phage clone on 3T3-FcRL3 cells

Question: Does B1 bind?
Answer: Result: no binding

Question: Does B2 bind?
Answer: Result: no binding

Question: Does B3 bind?
Answer: Result: no binding

Question: Does B4 bind?
Answer: Result: no binding

Question: Does B5 bind?
Answer: Result: no binding

Question: Does B6 bind?
Answer: Result: no binding

Question: Does B7 bind?
Answer: Result: no binding

target: T2, Fc Receptor-like 5 (FcRL5), full …; test: phage clone screening on cells
Procedure, shortened: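 scFv phage clones were incubated with live 3T3 cells overexpressing full-length FcRL5, then detected with mouse anti-M13 mAb and PE-anti-mouse Ig by flow cytometry. 3T3 cells expressing FcRL1, 2, 3, 4 or 6 served as negative-control targets.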

Question: Does B1 bind?
Answer: Result: binds

Question: Does B2 bind?
Answer: Result: binds

Question: Does B3 bind?
Answer: Result: binds

Question: Does B4 bind?
Answer: Result: binds

Question: Does B5 bind?
Answer: Result: binds

Question: Does B6 bind?
Answer: Result: binds

Question: Does B7 bind?
Answer: Result: binds

target: T3, FcRL4, overexpressed on 3T3 cells; test: phage clone on 3T3-FcRL4 cells

Question: Does B1 bind?
Answer: Result: no binding

Question: Does B2 bind?
Answer: Result: no binding

Question: Does B3 bind?
Answer: Result: no binding

Question: Does B4 bind?
Answer: Result: no binding

Question: Does B5 bind?
Answer: Result: no binding

Question: Does B6 bind?
Answer: Result: no binding

Question: Does B7 bind?
Answer: Result: no binding

target: T4, FcRL2, overexpressed on 3T3 cells; test: phage clone on 3T3-FcRL2 cells

Question: Does B1 bind?
Answer: Result: no binding

Question: Does B2 bind?
Answer: Result: no binding

Question: Does B3 bind?
Answer: Result: no binding

Question: Does B4 bind?
Answer: Result: no binding

Question: Does B5 bind?
Answer: Result: no binding

Question: Does B6 bind?
Answer: Result: no binding

Question: Does B7 bind?
Answer: Result: no binding
